Source: PMC12469269, “Investigating SMR Peptide Interactions with Breast Cancer-Associated Proteins” (International Journal of Molecular Sciences, 2025)

Columns and labels:
Assay in all cases: SPR
Conditions in all cases: both partners purified
[1] = target: T1, Recombinant Human GRP75/HSPA9B/Mortalin His Protein (human, UniProt P38646 47-679)
T1 construct: source: bought: Novus Biologicals, LLC/R&D Systems

[2] = target: T2, Recombinant Human Vimentin Protein, CF (human, UniProt P08670 1-466)
T2 construct: source: bought: Novus Biologicals, LLC/R&D Systems

[3] = target: T1, Recombinant Human GRP75/HSPA9B/Mortalin …; remark: listed apart in the source
[4] = target: T2, Recombinant Human Vimentin Protein, CF; remark: listed apart in the source

T2 sequence (P08670 whole entry): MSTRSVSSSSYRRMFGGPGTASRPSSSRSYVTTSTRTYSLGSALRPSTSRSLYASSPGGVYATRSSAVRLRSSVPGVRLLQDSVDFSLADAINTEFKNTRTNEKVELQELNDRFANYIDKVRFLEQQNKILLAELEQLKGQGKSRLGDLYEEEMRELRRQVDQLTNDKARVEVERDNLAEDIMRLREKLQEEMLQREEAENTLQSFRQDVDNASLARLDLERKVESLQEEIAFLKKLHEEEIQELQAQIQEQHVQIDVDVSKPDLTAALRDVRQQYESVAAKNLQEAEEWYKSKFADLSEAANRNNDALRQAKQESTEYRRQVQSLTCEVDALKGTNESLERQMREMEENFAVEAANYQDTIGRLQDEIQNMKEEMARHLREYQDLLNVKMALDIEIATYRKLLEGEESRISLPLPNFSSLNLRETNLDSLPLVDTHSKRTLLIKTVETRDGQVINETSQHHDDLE
T1 sequence (P38646 47-679): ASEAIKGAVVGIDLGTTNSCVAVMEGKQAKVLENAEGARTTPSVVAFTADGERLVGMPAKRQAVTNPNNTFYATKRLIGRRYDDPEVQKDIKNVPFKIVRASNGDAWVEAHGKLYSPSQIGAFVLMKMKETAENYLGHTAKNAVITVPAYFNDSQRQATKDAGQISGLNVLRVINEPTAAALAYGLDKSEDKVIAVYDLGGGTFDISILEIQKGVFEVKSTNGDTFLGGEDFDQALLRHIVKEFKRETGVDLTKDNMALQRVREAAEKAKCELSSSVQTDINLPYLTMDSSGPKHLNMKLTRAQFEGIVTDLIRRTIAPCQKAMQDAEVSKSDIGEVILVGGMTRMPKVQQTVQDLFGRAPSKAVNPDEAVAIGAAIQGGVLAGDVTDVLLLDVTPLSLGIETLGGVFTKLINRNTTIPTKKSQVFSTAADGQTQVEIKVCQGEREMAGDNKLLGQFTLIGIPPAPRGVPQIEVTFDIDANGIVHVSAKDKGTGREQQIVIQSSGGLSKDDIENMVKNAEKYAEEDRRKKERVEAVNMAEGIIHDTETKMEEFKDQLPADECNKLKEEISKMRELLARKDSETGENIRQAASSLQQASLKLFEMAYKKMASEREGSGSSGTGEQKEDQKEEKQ

B1: HIV-1 Nef protein (natural protein)
chain: MGGKWSKSSVVGWPTVRERMRRAEPAADGVGAASRDLEKHGAITSSNTAATNAACAWLEAQEEEEVGFPVTPQVPLRPMTYKAAVDLSHFLKEKGGLEGLIHSQRRQDILDLWIYHTQGYFPDWQNYTPGPGVRYPLTFGWCYKLVPVEPDKVEEANKGENTSLLHPVSLHGMDDPEREVLEWRFDSRLAFHHVARELHPEYFKNC
notes: also called full Nef protein
Kd [1]: 2.1 nM | Kd [2]: 0.2 nM | Kd [3]: 3.16 nM | Kd [4]: 0.75 nM
